Here are results for one substance from US20240197872A1.

In the experiment the target is CD20 on CD20-positive human lymphoma cell lines Raji and Daudi (human) (UniProt P11836). Briefly: cell-based or functional assay.
Sequence of UniProt P11836 (P11836 whole entry): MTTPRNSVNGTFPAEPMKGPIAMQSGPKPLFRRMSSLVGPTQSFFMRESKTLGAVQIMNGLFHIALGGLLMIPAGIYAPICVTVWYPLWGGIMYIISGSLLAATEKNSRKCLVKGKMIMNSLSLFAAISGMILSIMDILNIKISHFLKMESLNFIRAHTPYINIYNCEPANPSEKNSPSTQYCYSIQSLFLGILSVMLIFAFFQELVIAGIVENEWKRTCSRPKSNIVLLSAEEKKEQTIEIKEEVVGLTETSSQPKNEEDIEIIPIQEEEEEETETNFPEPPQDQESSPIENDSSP

Consider “rituximab (commercially available anti-CD20 antibody, Rituxan), conjugated to an ssDNA linker and hybridised to the surface of gdT cells (ACE-gdT-CD20 cells)”, for which the percentage of lysed target cells, Daudi, E:T 2:1 (Ctrl-gdT cells without rituximab: 19.68%) amounted to 41.2%; the percentage of lysed target cells, Daudi, E:T 10:1 (Ctrl-gdT cells without rituximab: 43.66%) is 71.2%; the percentage of lysed target cells, Raji, E:T 10:1 (Ctrl-gdT cells without rituximab: 43.13%) came to 69.4%.
